{
  "source": "paper PMC5493634",
  "about": "“Intermolecular steric inhibition of Ephexin4 is relieved by Elmo1” (Scientific Reports, 2017)",
  "proteins": {"B1": {"name": "Ephexin4 (full-length, wild type) (natural protein, UniProt Q5VV41 1-709, looked up)", "chain": "MAQRHSDSSLEEKLLGHRFHSELRLDAGGNPASGLPMVRGSPRVRDDAAFQPQVPAPPQPRPPGHEEPWPIVLSTESPAALKLGTQQLIPKSLAVASKAKTPARHQSFGAAVLSREAARRDPKLLPAPSFSLDDMDVDKDPGGMLRRNLRNQSYRAAMKGLGKPGGQGDAIQLSPKLQALAEEPSQPHTRSPAKNKKTLGRKRGHKGSFKDDPQLYQEIQERGLNTSQESDDDILDESSSPEGTQKVDATIVVKSYRPAQVTWSQLPEVVELGILDQLSTEERKRQEAMFEILTSEFSYQHSLSILVEEFLQSKELRATVTQMEHHHLFSNILDVLGASQRFFEDLEQRHKAQVLVEDISDILEEHAEKHFHPYIAYCSNEVYQQRTLQKLISSNAAFREALREIERRPACGGLPMLSFLILPMQRVTRLPLLMDTLCLKTQGHSERYKAASRALKAISKLVRQCNEGAHRMERMEQMYTLHTQLDFSKVKSLPLISASRWLLKRGELFLVEETGLFRKIASRPTCYLFLFNDVLVVTKKKSEESYMVQDYAQMNHIQVEKIEPSELPLPGGGNRSSSVPHPFQVTLLRNSEGRQEQLLLSSDSASDRARWIVALTHSERQWQGLSSKGDLPQVEITKAFFAKQADEVTLQQADVVLVLQQEDGWLYGERLRDGETGWFPEDFARFITSRVAVEGNVRRMERLRVETDV", "notes": "Ephexin4, guanine nucleotide-exchange factor for RhoG; full-length; also called Epx4; Ephexin4-FLAG"}},
  "molecular_target": "the molecule itself",
  "test": "cross-linking; 293T cells transfected with Ephexin4-FLAG, cells incubated with or without 0.25 mM BMH (PBS pH 7.3, 5 mM EDTA) at room temperature for 1 h, then lysed; anti-FLAG immunoblot (Fig. 2d)",
  "data": [
    {"protein": "B1", "values": [
      {"measurement": "stoichiometry N", "result": 3}
    ]}
  ]
}
